± gives the uncertainty stated by the source.

The record followed here is the Human Domainome abundance scans (Beltran et al. 2025).

B1: Glucocorticoid receptor, residues 419 to 494; numbered along this chain, P04150 (parent)
chain: KLCLVCSDEASGCHYGVLTCGSCKVFFKRAVEGQHNYLCAGRNDCIIDKIRRKNCPACRYRKCLQAGMNLEARKTK

The variants in this series derive from B1. Put plainly: abundance fitness (aPCA) (normalised: wild type 0, dead -1); higher = more abundant; growth selection in yeast, the domain comes from the species named. The settings on record: Homo sapiens.
Turning to A10R, the abundance fitness was -0.453 ± 0.042.
Then A10T, with -0.161 ± 0.048.
Then A10S, with -0.079 ± 0.041; and A10Y, with -0.272 ± 0.08.
Then C13L, with -0.007 ± 0.034; and C13Q, with 0.001 ± 0.049.
For the variant C13M, the abundance fitness is -0.027 ± 0.038.
Then C13R, with -0.025 ± 0.031; and K24W, with -0.037 ± 0.089; and K24G, with -0.018 ± 0.051.
Then K24D, with -0.006 ± 0.087; and Q34V, with -0.073 ± 0.039; and Q34I, with -0.188 ± 0.093.
Q34K: the abundance fitness was -0.035 ± 0.046.
On to Q34W, for which the abundance fitness was -0.136 ± 0.046.
Regarding Q34R, the abundance fitness was determined as 0.002 ± 0.032.
Next, Q34L: -0.099 ± 0.04; Q34P: -0.114 ± 0.051.
Then R29I, with 0.018 ± 0.064.
Then R29A, with -0.024 ± 0.042; and R29Y, with -0.072 ± 0.1; and R29C, with -0.077 ± 0.07.
R29Q: the abundance fitness is -0.072 ± 0.045.
Then H14L, with -0.125 ± 0.034; and H14G, with -0.187 ± 0.031; and H14T, with -0.161 ± 0.049.
Then H14S, with -0.076 ± 0.039; and H14V, with -0.367 ± 0.042.
Then H14I, with -0.184 ± 0.069.
For the variant E71W, the abundance fitness is -0.106 ± 0.04.
Next, E71K: -0.077 ± 0.056.
Then E71V, with -0.01 ± 0.038.
Then E71C, with -0.052 ± 0.049; and E71T, with -0.076 ± 0.053; and K76Y, with -0.206 ± 0.17.
With K76N, the abundance fitness is 0.045 ± 0.095.
Next, K76G: 0.018 ± 0.052.
As for K76D, the abundance fitness amounted to 0.02 ± 0.068.
Next, K76A: 0.028 ± 0.051; R61A: 0.054 ± 0.033; R61Q: 0.101 ± 0.048.
Next, D48S: -0.142 ± 0.04; D48A: -0.327 ± 0.037; D48P: -0.591 ± 0.075.
Next, L38E: 0.012 ± 0.036; L38Q: -0.024 ± 0.04.
As to L38K, the abundance fitness stood at 0.033 ± 0.047.
Next, L38S: -0.035 ± 0.041; L38N: 0.02 ± 0.072.
Then K28E, with 0.007 ± 0.047.
Next, K28F: -0.086 ± 0.086.
On to K28C, for which the abundance fitness is -0.121 ± 0.069.
Next, K28H: -0.001 ± 0.065.
Next, R42C: -0.064 ± 0.045.
Then R42W, with -0.077 ± 0.039; and R42L, with 0.012 ± 0.034; and R42G, with 0.009 ± 0.027.
Regarding R59E, the abundance fitness is -0.583 ± 0.067.
Next, R59W: 0.017 ± 0.037.
Next, R59D: -0.609 ± 0.21; R59P: -0.737 ± 0.11.
Next, R59N: -0.817 ± 0.23.
Take P56R: the abundance fitness is -0.076 ± 0.031.
Then P56E, with 0.015 ± 0.037; and P56K, with -0.108 ± 0.052.
Then P56M, with -0.053 ± 0.041.
Next, P56S: -0.035 ± 0.038.
E32W: the abundance fitness is -0.201 ± 0.046.
Next, E32K: 0.01 ± 0.049.
Next, E32N: -0.059 ± 0.059; E32R: -0.021 ± 0.032; E32C: -0.031 ± 0.056.
Then E32H, with -0.058 ± 0.073; and E32A, with -0.166 ± 0.041; and C3K, with -0.823 ± 0.18.
Turning to C3N, the abundance fitness was -0.67 ± 0.27.
Then C3H, with -0.737 ± 0.44; and C3R, with -0.771 ± 0.081; and C3E, with -0.787 ± 0.12.
Then C3D, with -0.653 ± 0.33.
Next, L70V: 0.021 ± 0.032.
In the case of L70A, the abundance fitness was -0.058 ± 0.036.
In the case of L70Y, the abundance fitness was found to be 0.023 ± 0.077.
Next, L70K: -0.029 ± 0.054; L70H: 0.01 ± 0.073; K49W: -0.129 ± 0.038.
Then K49V, with 0.024 ± 0.037.
K49S: the abundance fitness was -0.037 ± 0.041.
Next, K49F: -0.019 ± 0.065.
For the variant I50W, the abundance fitness is -0.02 ± 0.038.
Then I50A, with -0.004 ± 0.036; and I50N, with -0.018 ± 0.08.
Next, I50H: -0.153 ± 0.097.
For the variant Y37Q, the abundance fitness was -0.137 ± 0.13.
Next, Y37G: -0.074 ± 0.04; Y37N: -0.026 ± 0.066; Y37P: -0.104 ± 0.054.
Regarding Y37R, the abundance fitness is -0.211 ± 0.044.
Then Y37T, with -0.084 ± 0.052; and Y37I, with -0.08 ± 0.093.
Next, M68R: -0.719 ± 0.059; M68F: -0.076 ± 0.065; K74M: 0.009 ± 0.054.
Next, K74C: -0.032 ± 0.06; K74V: -0.008 ± 0.044; K74P: -0.049 ± 0.056.
For K74T, the abundance fitness was -0.034 ± 0.054.
Next, A30K: -0.165 ± 0.062.
For the variant A30N, the abundance fitness was -0.283 ± 0.098.
With A30R, the abundance fitness is -0.457 ± 0.045.
Next, A30Y: -0.102 ± 0.1.
A30Q: the abundance fitness was -0.192 ± 0.049.
Then A30T, with -0.064 ± 0.05; and N36W, with -0.151 ± 0.045; and N36A, with -0.012 ± 0.036.
Next, N36G: -0.057 ± 0.032; N36T: -0.008 ± 0.046.
Then T19L, with -0.184 ± 0.037; and T19Y, with -0.697 ± 0.22; and T19G, with -0.393 ± 0.044.
For the variant T19S, the abundance fitness came out at 0.034 ± 0.039.
In the case of C55R, the abundance fitness is -0.929 ± 0.077.
With C55L, the abundance fitness is -1.1 ± 0.15.
Next, C55K: -0.877 ± 0.21; V31A: -0.031 ± 0.039.
Then V31R, with -0.007 ± 0.028; and V31N, with -0.104 ± 0.082.
Then V31Y, with -0.034 ± 0.081; and V31M, with -0.042 ± 0.049; and E9R, with 0.04 ± 0.032.
For E9L, the abundance fitness came out at 0.036 ± 0.033.
Next, E9Q: -0.017 ± 0.056; E9T: 0.089 ± 0.045; E9W: 0.062 ± 0.041.
Then E9F, with -0.115 ± 0.071.
Next, E9H: -0.052 ± 0.075.
Turning to E9S, the abundance fitness was 0.032 ± 0.036.
Next, L18D: 0.062 ± 0.062; L18S: 0.038 ± 0.05.
Then L18A, with 0.097 ± 0.044.
Next, L18Y: 0.098 ± 0.086; L18N: -0.1 ± 0.081; L18E: -0.045 ± 0.052.
In the case of Y15G, the abundance fitness is -0.096 ± 0.035.
Next, Y15E: -0.067 ± 0.042; C20K: -0.948 ± 0.17; C20N: -0.75 ± 0.26.
In the case of C20I, the abundance fitness was -1.11 ± 0.49.
For the variant C58A, the abundance fitness is -0.935 ± 0.12.
Then C58G, with -0.81 ± 0.11.
Next, C58F: -1 ± 0.3.
Next, C58Y: -0.405 ± 0.16; R73T: 0.024 ± 0.051; R73Y: -0.062 ± 0.073.
For the variant R73K, the abundance fitness turned out to be 0.004 ± 0.052.
Then A72G, with -0.023 ± 0.032; and A72P, with -0.077 ± 0.055; and A72I, with 0.002 ± 0.062.
In the case of C6G, the abundance fitness is -0.934 ± 0.11.
With C6S, the abundance fitness is -1.22 ± 0.25.
Then C6E, with -0.941 ± 0.14; and K53H, with -0.038 ± 0.079.
Consider K53G, for which the abundance fitness is 0.039 ± 0.033.
Then K53E, with 0.058 ± 0.044; and K53F, with -0.033 ± 0.059.
Next, K53S: -0.009 ± 0.036; R52M: -0.101 ± 0.052.
